Test results published in paper PMC3563628, “Prevalence, Specificity and Determinants of Lipid-Interacting PDZ Domains from an In-Cell Screen and In Vitro Binding Experiments” (PLoS ONE, 2013).
Read-outs that look alike come from different tables or passages of the source. Values belong to the molecule of their own block, whether it stands above or below them.

What was measured:
[1] = test system: eYFP-S1PDZ1-MPDZ_7 in MCF-7 cells; assay: Pharmacological treatment, plasma membrane localization of eYFP-S1PDZ1-MPDZ_7; type: cell-based; settings: ionomycin 10 µM
[2] = test system: eYFP-S1PDZ1-MAGI3_3 and eYFP-S1PDZ1-IL16_1 in MCF-7 cells; assay: Pharmacological treatment, peroxisomal enrichment of eYFP-S1PDZ1-MAGI3_3 and eYFP-S1PDZ1-IL16_1; type: cell-based; settings: wortmannin 500 nM, LY294002 50 µM, ionomycin 10 µM
[3] = test system: eYFP-S1PDZ1-CASK in MCF-7 cells; assay: Pharmacological treatment, plasma membrane localization of eYFP-S1PDZ1-CASK; type: cell-based
[4] = test system: eYFP-S1PDZ1-FYVE in MCF-7 cells; assay: Pharmacological treatment, localization of eYFP-S1PDZ1-FYVE; type: cell-based; settings: wortmannin 500 nM or LY294002 50 µM for 30 min, YM201636 800 nM for 2 h
CASK/I517W = biological target: T1, CASK/I517W (human, UniProt O14936 489-564); assay: other fluorescence titration; equilibrium titration of peptide into Trp-engineered PDZ domain kept constant at 3 µM, followed by intrinsic tryptophan fluorescence; 25°C, 25 mM HEPES, 150 mM NaCl, pH 7.2, 1 mM beta-mercaptoethanol; settings: both partners purified
T1 chain: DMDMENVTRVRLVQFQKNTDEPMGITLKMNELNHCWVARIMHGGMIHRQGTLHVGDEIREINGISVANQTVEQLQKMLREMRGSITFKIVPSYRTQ

[5] = biological target: T2, DFNB31_1/K206E (with Y167W) (human, UniProt Q9P202 136-224, K206E | Y167W); assay: as above; settings: both partners purified
T2 construct: first PDZ domain of human DFNB31 (whirlin); predicted PDZ domain with ten amino acids added on each side
T2 sequence: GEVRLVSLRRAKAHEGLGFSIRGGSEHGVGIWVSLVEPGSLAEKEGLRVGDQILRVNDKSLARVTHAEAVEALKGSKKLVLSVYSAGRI

[6] = biological target: T3, DFNB31_1/K209E (with Y167W) (human, UniProt Q9P202 136-224, K209E | Y167W); assay: as above; settings: both partners purified
T3 construct: first PDZ domain of human DFNB31 (whirlin); predicted PDZ domain with ten amino acids added on each side; The text once prints R209E for this mutant; also called R209E (once in the text)
T3 sequence: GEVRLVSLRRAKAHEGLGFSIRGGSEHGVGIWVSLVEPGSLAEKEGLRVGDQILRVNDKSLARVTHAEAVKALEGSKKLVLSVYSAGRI

[7] = biological target: T4, DFNB31_1/K212E (with Y167W) (human, UniProt Q9P202 136-224, K212E | Y167W); assay: as above; settings: both partners purified
T4 construct: first PDZ domain of human DFNB31 (whirlin); predicted PDZ domain with ten amino acids added on each side
T4 sequence: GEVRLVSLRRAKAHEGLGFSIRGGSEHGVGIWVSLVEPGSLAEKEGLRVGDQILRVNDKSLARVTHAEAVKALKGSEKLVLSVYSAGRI

DFNB31_1/Y167W = biological target: T5, DFNB31_1/Y167W (human, UniProt Q9P202 136-224, Y167W); assay: as above; settings: both partners purified
T5 construct: first PDZ domain of human DFNB31 (whirlin); predicted PDZ domain (Interpro, PFAM, SMART) with ten amino acids of the original protein added on each side; also called first PDZ domain of DFNB31 with a Trp probe
T5 sequence: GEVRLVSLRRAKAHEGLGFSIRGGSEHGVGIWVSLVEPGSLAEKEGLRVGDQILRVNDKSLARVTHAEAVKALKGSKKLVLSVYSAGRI

[8] = biological target: T6, DFNB31_1/R144E (with Y167W) (human, UniProt Q9P202 136-224, R144E | Y167W); assay: as above; settings: both partners purified
T6 construct: first PDZ domain of human DFNB31 (whirlin); predicted PDZ domain with ten amino acids added on each side
T6 sequence: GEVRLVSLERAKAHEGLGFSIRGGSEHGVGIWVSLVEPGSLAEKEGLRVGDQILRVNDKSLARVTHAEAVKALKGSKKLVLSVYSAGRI

[9] = biological target: T7, DFNB31_1/R145E (with Y167W) (human, UniProt Q9P202 136-224, R145E | Y167W); assay: as above; settings: both partners purified
T7 construct: first PDZ domain of human DFNB31 (whirlin); predicted PDZ domain with ten amino acids added on each side
T7 sequence: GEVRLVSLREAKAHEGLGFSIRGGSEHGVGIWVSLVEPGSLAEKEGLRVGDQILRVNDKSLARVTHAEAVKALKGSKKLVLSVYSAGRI

[10] = biological target: C-terminal peptide of usher (FTDTHL); assay: Equilibrium peptide binding titration followed by intrinsic tryptophan fluorescence; settings: for Kd: Y167W mutation introduced as fluorescent probe, protein 3 µM, 25°C, pH 7.2
Text: Given the overall low PtdInsPs specificities, and often modest PtdInsPs affinities, it is unlikely that PtdInsPs bindings alone target the PDZ domains to their defined subcellular compartments. Plausibly, peptide interactions are also involved in controlling the subcellular targeting. To address the interplay between PtdInsPs and peptide-binding we chose DFNB31_1 and CASK as models, taking two of the PDZ domains with well-defined cognate peptides. Cognate peptide ligands were the C-terminal peptides of usher (FTDTHL) for DFNB31_1 [50] and the TKEFYA peptide of syndecan-2 for CASK [51]. We measured the PDZ-peptide affinities by a fluorescence-based approach (Fig. 4E), by engineering Trp into the PDZ scaffolds and following the interactions by changes in intrinsic fluorescence, a strategy previously established for other PDZ domains (KD-values: DFNB31_1/Y167W for FTDTHL 46±6 µM; CASK/I157W for TKEFYA 280±20 µM), [52]. We then determined the apparent PtdIns(4,5)P2 affinities in presence of a (close to) saturating concentration of respective peptide (1 mM). The FTDTHL peptide appeared to compete for DFNB31_1-PtdIns(4,5)P2 interactions (KD ^PtdIns(4,5)P2 in presence of peptide >30 µM, Fig. 4F), which might indicate overlapping binding sites. […] We have previously reported on competitive binding by peptide and PtdIns(4,5)P2 with CASK [13]. However, in these experiments the peptide was linked to sepharose beads and PtdIns(4,5)P2 was present on micelles, which made it more difficult for the PDZ domain to simultaneously interact with the two ligands.
(§1) Spectrofluorimetric measurements were performed at 25°C in 25 mM HEPES, 150 mM NaCl, pH 7.2 and 1 mM beta-mercaptoethanol in a Carry Eclipse Spectrofluorimeter (Varian). The peptides corresponded to the C-termini of syndecan-2 (TKEFYA) and usher (FTDTHL) and were of high purity (purity >95%, GeneCust), and the experiment were performed and analyzed as described previously. Urea induced equilibrium unfolding experiments were performed using 1 µM of proteins (excitation 280 nm emission 320–380 nm) and the data fitted by a standard two-state model.

[11] = SPR equilibrium binding of his-tagged PDZ domains to PtdIns(4,5)P2 liposomes; settings: for Kd: SPR equilibrium analysis, 5% PtdIns(4,5)P2 in DOPC liposomes, 25°C, pH 7.2, read-out: KD app PtdIns(4,5)P2
[12] = Urea induced equilibrium unfolding followed by fluorescence; type: physicochemical; settings: Y167W background, ΔGD-N mut − ΔGD-N wt
Experimental: as §1
The effects of the mutations on the stability were calculated by ΔΔGD −N = ΔGD −Nmut − ΔGD −Nwt, where ΔΔGD-N is the difference between the free energies of unfolding upon mutation.

[13] = MCF-7, ionomycin 10 µM, PAO 100 µM, wortmannin 500 nM

Molecule: C[C@H](CCC(=O)O)C[C@H](C)C[C@H](C)C(=O)/C=C(\O)[C@H](C)C[C@H](C)C/C=C/[C@@H](C)[C@@H](O)[C@@H](C)[C@@H](O)C[C@@H]1CC[C@@](C)([C@H]2CC[C@@](C)([C@@H](C)O)O2)O1 [ionomycin]
plasma membrane localization of eYFP-S1PDZ1-MPDZ_7 upon treatment [1]: not
peroxisomal enrichments of eYFP-S1PDZ1-MAGI3_3 and eYFP-S1PDZ1-IL16_1 upon treatment [2]: did not alter
plasma membrane localization of eYFP-S1PDZ1-CASK upon treatment [3]: loss of membrane localization

Molecule: COC[C@H]1OC(=O)c2coc3c2[C@@]1(C)C1=C(C3=O)[C@@H]2CCC(=O)[C@@]2(C)C[C@H]1OC(C)=O [wortmannin]
localization of eYFP-S1PDZ1-FYVE upon treatment [4]: lost
peroxisomal enrichments of eYFP-S1PDZ1-MAGI3_3 and eYFP-S1PDZ1-IL16_1 upon treatment [2]: did not alter
plasma membrane localization of eYFP-S1PDZ1-CASK upon treatment [3, 13]: failed to release

Molecule: Nc1ccc(C(=O)Nc2cccc(-c3nc(N4CCOCC4)c4oc5ncccc5c4n3)c2)cn1 [YM201636]
localization of eYFP-S1PDZ1-FYVE upon treatment [4]: accumulation of eYFP-S1PDZ1-FYVE at the limiting membranes

Molecule: CCCCOc1cc(C(=O)NCCN(CC)CC)c2ccccc2n1 [dibucaine]
plasma membrane localization of eYFP-S1PDZ1-CASK upon treatment [3, 13]: failed to release

Molecule: O=c1cc(N2CCOCC2)oc2c(-c3ccccc3)cccc12 [LY294002, 2-(4-morpholinyl)-8-phenyl-4H-1-benzopyran-4-one]
localization of eYFP-S1PDZ1-FYVE upon treatment [4]: lost
peroxisomal enrichments of eYFP-S1PDZ1-MAGI3_3 and eYFP-S1PDZ1-IL16_1 upon treatment [2]: did not alter

Kd (CASK/I517W): 280 ± 20 µM
B1: C-terminal peptide of syndecan-2 (TKEFYA) (peptide)
peptide: TKEFYA
notes: C-terminus of syndecan-2; last six residues; also called TKEFYA peptide of syndecan-2; source: synthetic peptide, bought: GeneCust (purity >95%)

Kd [5]: 111 ± 8 µM
Kd [6]: 175 ± 15 µM
Kd [7]: 220 ± 40 µM
Kd (DFNB31_1/Y167W): 46 ± 6 µM
Kd [8]: 82 ± 3 µM
Kd [9]: 71 ± 8 µM
B2: C-terminal peptide of usher (FTDTHL) (peptide)
peptide: FTDTHL
notes: last six residues; also called FTDTHL peptide; source: synthetic peptide, bought: GeneCust (purity >95%)

Kd [10]: 46 ± 6 µM
B3: DFNB31_1/Y167W: DFNB31_1 with Y167W mutation as fluorescent probe (protein)
chain: GEVRLVSLRRAKAHEGLGFSIRGGSEHGVGIWVSLVEPGSLAEKEGLRVGDQILRVNDKSLARVTHAEAVKALKGSKKLVLSVYSAGRI
modifications: left off: His6, N-terminal, state not stated
notes: DFNB31_1 with Y167W mutation as fluorescent probe

Kd [11]: > 20 µM
Kd [10]: 82 ± 3 µM
B4: DFNB31_1/R144E: DFNB31_1 PDZ domain mutant R144E (protein)
chain: GEVRLVSLERAKAHEGLGFSIRGGSEHGVGIWVSLVEPGSLAEKEGLRVGDQILRVNDKSLARVTHAEAVKALKGSKKLVLSVYSAGRI
modifications: left off: His6, N-terminal, state not stated
ΔΔGD-N [12]: -0.65 ± 0.05 kcal/mol

Kd [11]: > 20 µM
Kd [10]: 220 ± 40 µM
B5: DFNB31_1/K212E: DFNB31_1 PDZ domain mutant K212E (protein)
chain: GEVRLVSLRRAKAHEGLGFSIRGGSEHGVGIWVSLVEPGSLAEKEGLRVGDQILRVNDKSLARVTHAEAVKALKGSEKLVLSVYSAGRI
modifications: left off: His6, N-terminal, state not stated
ΔΔGD-N [12]: 1.2 ± 0.1 kcal/mol

Kd [11]: > 20 µM
Kd [10]: 175 ± 15 µM
B6: DFNB31_1/K209E: DFNB31_1 PDZ domain mutant K209E (protein)
chain: GEVRLVSLRRAKAHEGLGFSIRGGSEHGVGIWVSLVEPGSLAEKEGLRVGDQILRVNDKSLARVTHAEAVKALEGSKKLVLSVYSAGRI
modifications: left off: His6, N-terminal, state not stated
ΔΔGD-N [12]: -0.15 ± 0.01 kcal/mol

Kd [11]: 8.2 ± 2 µM
Kd [10]: 111 ± 8 µM
decrease in peptide binding affinity upon mutation ([10]; versus DFNB31_1 (Y167W background)): 2 fold
B7: DFNB31_1/K206E: DFNB31_1 PDZ domain mutant K206E (protein)
chain: GEVRLVSLRRAKAHEGLGFSIRGGSEHGVGIWVSLVEPGSLAEKEGLRVGDQILRVNDKSLARVTHAEAVEALKGSKKLVLSVYSAGRI
modifications: left off: His6, N-terminal, state not stated
ΔΔGD-N [12]: 0.41 ± 0.03 kcal/mol

Kd [11]: 15 ± 5 µM
decrease in PtdIns(4,5)P2 binding upon mutation ([11]; versus wild type DFNB31_1): 2 fold
Kd [10]: 71 ± 8 µM
B8: DFNB31_1/R145E: DFNB31_1 PDZ domain mutant R145E (protein)
chain: GEVRLVSLREAKAHEGLGFSIRGGSEHGVGIWVSLVEPGSLAEKEGLRVGDQILRVNDKSLARVTHAEAVKALKGSKKLVLSVYSAGRI
modifications: left off: His6, N-terminal, state not stated
ΔΔGD-N [12]: -0.53 ± 0.05 kcal/mol
